The supplement of paper PMC12042874
± gives the uncertainty stated by the source.

Assay: amyloid nucleation score (Sup35N fusion, yeast selection) (log enrichment); library NNK3; higher = more nucleation; inactive = no reads after selection
How it was run: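 For the nucleation score, DiMSum gave the log enrichment of output over input reads, centred on the mode score of non-aggregating sequences. Psi-negative yeast expressing Sup35N fused to peptides of 20 random codons were induced with 100 μM copper sulfate for 24 hours and grown 7 days at 30°C on medium lacking adenine and uracil. Input and output plasmid inserts were Illumina-sequenced, and sequences with under 100 input reads were excluded.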

Substance | amyloid nucleation score
FVSGYVVALCYPWQGCPGVC | 1.97 ± 0.093
FVSLALGFGILSFYKDRLWD | 0.598 ± 0.33
FVSPNLIVMVWVHWRSEINR | inactive
FVTAKQCVVCRQ | inactive
FVTSVQVRFNMGFFAELFAV | inactive
FVVLLGFYHLASQDAYRGAL | 1.09 ± 0.14
FVYSCNC | 2.34 ± 0.08
FWCIYS | inactive
FWFWMIVDNRWYSLAVEARW | -0.304 ± 0.8
FWKKLWNSSF | inactive
FWPMFSVVVRRRKFHSTPVH | inactive
FWTLDRLRMLYVAILQPWSD | inactive
FWVVISLMSSRVTVASDDHI | inactive
FWWKSYFFNLKV | inactive
FYEVRVRRVRVHVKEQPLLH | -0.406 ± 1.3
FYFDRTSVIMRLFSMWNNFG | inactive
FYFPLYDL | inactive
FYKAFIL | inactive
FYKLTLRSVRFLSFTYRIGA | inactive
FYLGEYETLFVKDIRGDSVP | -0.97 ± 1.1
FYLGLAYVLSWVGFCVIGVS | inactive
FYLHSFRLNHSLRDLSDLGE | inactive
FYMLMISSQYFVTRLAPYFP | -0.015 ± 0.87

Substance | amyloid nucleation score
FYPLYSNEHCCG | inactive
FYPTNGSGSRVLMHGNSMLC | inactive
FYRRNAI | inactive
FYSCGNDAASMLFRLTSGGI | inactive
FYSFWYPFTVSAMRLYWCSW | inactive
FYTFYSHLNELLHL | -0.009 ± 0.66
FYVPVYGERV | inactive
FYVVNSWPRMMCGQARILCL | inactive
FYWSFIRLFRS | inactive
FYYANMTRSKILAPFSRPSR | inactive
FYYDYSLCPCYYVGDYEHES | 2.41 ± 0.056
FYYLTKSGYAFRLSKTSP | inactive
GAFPRGSS | inactive
GANKVSNRRVMSSDPTSQCL | inactive
GAQAKC | inactive
GAQKYSFPRVSWPILGRIDY | inactive
GATNDH | inactive
GAVLLSGEEL | 0.871 ± 0.17
GCAKVKLI | -0.292 ± 0.75
GCASRLFVGWRGSCRMCGTY | inactive
GCECGISHLVLGAKVVPSMI | inactive
GCGPLNFSVESHQCLKS | inactive
GCGRTEMNVSMSGPSRMVDL | inactive

Substance | amyloid nucleation score
GCKRSSGKRFLCRGAPCDEW | inactive
GCLEFGVMEFPGEDEFNFLG | inactive
GCLIAGYKKRDANKFCGVAL | inactive
GCLVRCDFVSQCLNWDG | inactive
GCPIFAIFFDLTLCDNARYM | 2.47 ± 0.08
GCSRWCFGDTGIE | inactive
GCVMVKSSLMFSLLR | -0.883 ± 1.2
GDCVLDPDLRSWDEW | inactive
GDFTSLDVVYYGNDCTLF | inactive
GDKISANACSMNFFDMFW | inactive
GDSGPDKKWHFTKY | inactive
GDTHESFVGRTVYPDRLESH | inactive
GECTWTDVPMANSPRFVSEY | inactive
GEKIDRVM | inactive
GELRPLIVGDNLGLS | inactive
GESNLCDAG | inactive
GFCICEYDRCTIFSYNHYGA | 2.94 ± 0.054
GFINKDVF | inactive
GFLTKCALWKIWF | inactive
GFPKWDESSMSTFDCSIRSR | inactive
GFRECTRNFFL | 0.361 ± 0.17
GFSGPSLGQIAG | inactive
GFSNFQEVVGILYCQFWVLL | 1.33 ± 0.075

Substance | amyloid nucleation score
GFSNITMCLA | inactive
GFTRFFYLSRLMVGNMI | inactive
GFWLGVMVTHTSTTYSAFTP | 0.059 ± 0.29
GGARMRFDQFMRHRATLASV | inactive
GGDSPNDARRFFNFHIYNIW | 2.05 ± 0.08
GGFVLC | inactive
GGKHPGMCFHCEWLGYWFTS | inactive
GGKLGTLCSNSRYGSVHMGV | inactive
GGLVSCLSAARIGHHGASLE | inactive
GGNSWITSMLAYWLTSAHNA | inactive
GGYRVGFYQY | inactive
GHGSFE | inactive
GHMTVSTWWNIVYMAKGYRV | -0.425 ± 0.8
GHSGKVVL | inactive
GICNQNIPQRGSMWLVSKTF | inactive
GIEADYSYMSGEGKAVCSSM | inactive
GIGCDLFRCADTRWIVLPSM | inactive
GILRQRIYFSM | inactive
GIMMSD | inactive
GKCRQGYTRMWHNYMLMGIL | inactive
GKDVHMKGNSKRSVWYVPQG | inactive
GKGSNASIGVITVDTVYIVA | 1.42 ± 0.09
GKLYPKNVSWILFSAETYLY | 2.54 ± 0.075

Substance | amyloid nucleation score
GKSTYVLFGKWNTEKTRNRG | inactive
GKYVVIDIGRSYFSKISGFR | inactive
GLDGTGHKYDGQFARRWNLR | inactive
GLDHSKGYLQLS | inactive
GLFFW | -0.669 ± 0.74
GLFYMMLLTRMGRYRGERNG | 1.18 ± 0.1
GLHVTCGRDYHGWMGDCSMA | inactive
GLKNRVSGPPFASTYFWSAL | inactive
GLLVWQCMWGLDKKYLHSVY | inactive
GLRVQCWECTIRSFGV | 0.448 ± 0.24
GLSVVYSNRYNTWVRDLKDW | 0.376 ± 0.22
GLSYNFHLCQVLVIFMVDGS | 1.66 ± 0.1
GLTLFWITAVAQAWDWLDPL | inactive
GLVLISKC | inactive
GLVNCEHVWRIETKLVTPHL | -0.764 ± 0.76
GLYPQWLGDGRWLSSGLATL | 0.138 ± 0.33
GMQALIVFSSVVMRYAFVEG | -1.18 ± 1.7
GMRFRCKRYVCVLQ | -0.078 ± 0.98
GMTEGYYLESVGGSKFDNVV | inactive
GNCGRSGINCHMTGTSVVRC | inactive
GNCLIRLTYR | inactive
GNFSRLDSCFTVVRARVKCN | inactive
GNSAYK | inactive

Substance | amyloid nucleation score
GNSIRAVVLLRMGLELDSGV | inactive
GPLRVPVMMGCWRRIDRMPW | inactive
GPSLVVNDLFGFCMVMYLND | inactive
GQPAH | inactive
GRDAVHHCMLRESQRKLREV | inactive
GREFRICNSFVWVSVFIFCG | inactive
GRHVLGCVDITTGARSLPRM | inactive
GRKDAKR | inactive
GRLCELITSMY | inactive
GRLLRTMVD | inactive
GRPTSRLMSNWTFPSATVSW | inactive
GRRSNCINSVNSGTRGRRRA | inactive
GRSLCVVCSGLVWLCW | 2.19 ± 0.077
GRSSCLSTFC | inactive
GRSWVLV | inactive
GRSYREIMDSIFCGQFFYNK | 2.45 ± 0.077
GRVPLPCICDRWYYLEGWEV | -0.034 ± 0.96
GSATCAS | inactive
GSHICGALSSRDLFSGVLRI | inactive
GSISIVVQM | 2.2 ± 0.075
GSKFIFFLMFYGVWLRSPSK | inactive
GSMFFNVC | 0.254 ± 0.28
GSPECPLVEV | inactive

Substance | amyloid nucleation score
GSSRSGKGHCMLRVSVFYCV | inactive
GSTGVIDDLSKVHCGGMCVD | inactive
GSTSRIPGVLVSKRRANMQH | inactive
GSTVEYTFGDWKYQDMSSVC | inactive
GSTYTVGSAGSSMTTRDLDM | inactive
GSVQTHFLDYGCSPNMDMLV | inactive
GSYTLYFVIWLFHIRFYGTR | inactive
GTDVRS | -0.272 ± 0.43
GTIMMWLGVQRVLTASGKGG | inactive
GTNDDESRRRRREWD | inactive
GTNIFVKTDTYCPFICST | inactive
GTRIGEIRLASFGSVRGFNV | inactive
GTYLGELVTGLTPGRCPGHF | inactive
GTYLVSDAAGFYSWYLHYSF | inactive
GTYVKLLEVFTSFSWFRRFF | inactive
GVDCQASILHPCLFF | inactive
GVDFEDQPSSQDFLYSARYL | inactive
GVFDYTYGRLVAVFKGFGNY | inactive
GVFVEIRILYKGKWYTCMSK | inactive
GVGNKGSTKNLEQVTASVVV | inactive
GVKGFQRQKRIFFGFCEFKV | inactive
GVNVTKVFTFRMVSCGPDDF | 0.294 ± 0.21
